Experimental data published in US20020127684.

Tests used:
GST-ATF2 = target: T1, GST-ATF2
T1 sequence (P15336 whole entry, species assumed, looked up): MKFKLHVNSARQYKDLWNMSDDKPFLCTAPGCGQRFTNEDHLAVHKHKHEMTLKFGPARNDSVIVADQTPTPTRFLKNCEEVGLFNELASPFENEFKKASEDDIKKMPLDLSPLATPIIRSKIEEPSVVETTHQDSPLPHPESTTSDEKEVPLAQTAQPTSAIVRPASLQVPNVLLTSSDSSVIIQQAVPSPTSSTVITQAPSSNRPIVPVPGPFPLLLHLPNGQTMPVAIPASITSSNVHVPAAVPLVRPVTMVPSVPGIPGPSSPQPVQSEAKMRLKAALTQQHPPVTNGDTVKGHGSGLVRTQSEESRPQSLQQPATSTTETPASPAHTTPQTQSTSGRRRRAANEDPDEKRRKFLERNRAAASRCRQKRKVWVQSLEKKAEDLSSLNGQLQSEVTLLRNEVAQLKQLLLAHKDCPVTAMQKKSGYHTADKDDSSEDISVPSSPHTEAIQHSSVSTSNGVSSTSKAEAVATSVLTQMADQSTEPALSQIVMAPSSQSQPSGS

Measured: in vitro kinase assay with gamma-32P ATP: phosphorylation of heterologous substrate

Chain of myelin basic protein (P02687 whole entry): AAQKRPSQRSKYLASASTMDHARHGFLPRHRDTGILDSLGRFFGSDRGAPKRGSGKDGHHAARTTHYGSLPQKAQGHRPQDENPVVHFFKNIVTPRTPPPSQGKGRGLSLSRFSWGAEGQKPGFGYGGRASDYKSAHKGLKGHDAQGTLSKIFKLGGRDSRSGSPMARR

B1: GST-CARK-KD fusion protein (CARK kinase domain, amino acid residues 424 to 835 of SEQ ID NO:2) (protein)
chain: SYVSVPSPLGKIKSMTKEKADILLLRAGLPSHFHLQLSEIEFHEIIGSGSFGKVYKGRCRNKIVAIKRYRANTYCSKSDVDMFCREVSILCQLNHPCVIQFVGACLNDPSQFAIVTQYISGGSLFSLLHEQKRILDLQSKLIIAVDVAKGMEYLHNLTQPIIHRDLNSHNILLYEDGHAVVADFGESRFLQSLDEDNMTKQPGNLRWMAPEVFTQCTRYTIKADVFSYALCLWEILTGEIPFAHLKPAAAAADMAYHHIRPPIGYSIPKPISSLLIRGWNACPEGRPEFSEVVMKLEECLCNIELMSPASSNSSGSLSPSSSSDCLVNRGGPGRSHVAALRSRFELEYALNARSYAALSQSAGQYSSQGLSLEEMKRSLQYTPIDKYGYVSDPMSSMHFHSCRNSSSFEDSS
phosphorylated: H1 histone | GST-ATF2 | Phas-1 (4E-BP-1) | myelin basic protein

B2: GST-CARK fusion protein (full length human CARK) (protein)
chain: MGNYKSRPTQTCTDEWKKKVSESYVITIERLEDDLQIKEKELTELRNIFGSDEAFSKVNLNYRTENGLSLLHLCCICGGKKSHIRTLMLKGLRPSRLTRNGFTALHLAVYKDNAELITSLLHSGADIQQVGYGGLTALHIATIAGHLEAADVLLQHGANVNIQDAVFFTPLHIAAYYGHEQVTRLLLKFGADVNVSGEVGDRPLHLASAKGFLNIAKLLMEEGSKADVNAQDNEDHVPLHFCSRFGHHDIVKYLLQSDLEVQPHVVNIYGDTPLHLACYNGKFEVAKEIIQISGTESLTKENIFSETAFHSACTYGKSIDLVKFLLDQNVININHQGRDGHTGLHSACYHGHIRLVQFLLDNGADMNLVACDPSRSSGEKDEQTCLMWAYEKGHDAIVTLLKHYKRPQDELPCNEYSQPGGDGSYVSVPSPLGKIKSMTKEKADILLLRAGLPSHFHLQLSEIEFHEIIGSGSFGKVYKGRCRNKIVAIKRYRANTYCSKSDVDMFCREVSILCQLNHPCVIQFVGACLNDPSQFAIVTQYISGGSLFSLLHEQKRILDLQSKLIIAVDVAKGMEYLHNLTQPIIHRDLNSHNILLYEDGHAVVADFGESRFLQSLDEDNMTKQPGNLRWMAPEVFTQCTRYTIKADVFSYALCLWEILTGEIPFAHLKPAAAAADMAYHHIRPPIGYSIPKPISSLLIRGWNACPEGRPEFSEVVMKLEECLCNIELMSPASSNSSGSLSPSSSSDCLVNRGGPGRSHVAALRSRFELEYALNARSYAALSQSAGQYSSQGLSLEEMKRSLQYTPIDKYGYVSDPMSSMHFHSCRNSSSFEDSS
phosphorylated: H1 histone | GST-ATF2 | Phas-1 (4E-BP-1) | myelin basic protein
